In the supplement of paper PMC7877785:
± gives the uncertainty stated by the source.

Test: self-splicing fitness, log relative to wild type (ln ratio); higher = more splicing; Tetrahymena group I intron in knt gene, E. coli kanamycin selection, DiMSum; sequences stand for … in CUCUCU…GGAGGGAAAAGUUAUCAGGCAUGCACCUGGUAGCUAGUCUUUAAACCAAUAGAUUGCAUCGGUUUAAAAGGCAAGACCGUCAAAUUGCGGGAAAGGGGUCAACAGCCGUUCAGUACCAAGUCUCAGGGGAAACUUUGAGAUGGCCUUGCAAAGGGUAUGGUAAUAAGCUGACGGACAUGGUCCUAACCACGCAGCCAAGUCCUAAGUCAACAGAUCUUCUGUUGAUAUGGAUGCAGUUCACAGACUAAAUGUCGGUCGGGGAAGAUGUAUUCUUCUCAUAAGAUAUAGUCGGACCUCUCCUUAAUGGGAGCUAGCGGAUGAAGUGAUGCAACACUGGAGCCGCUGGGAACUAAUUUGUAUGCGAAAGUAUAUUGAUUAGUUUUGGAGUACUCGUGGUCG
Procedure, shortened: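 DiMSum derived fitness as the error-weighted combination of fold changes across replicates, kanamycin versus no kanamycin, normalised to wild type. E. coli BL21(DE3) held the library, which randomised all eight P1ex-region intron nucleotides within the knt kanamycin-resistance gene on pET-22b(+). Six replicate transformations grew overnight at 37°C or 30°C on LB agar with or without 25 μg/mL kanamycin, also containing 100 μg/mL carbenicillin, 50 μM IPTG and 0.2% rhamnose, and pooled colonies were amplicon-sequenced on an Illumina HiSeq 2500.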

Sequence | self-splicing fitness (ln) (30 °C) | self-splicing fitness (ln) (37 °C)
GCACAGCAAUAUUACGGGUA | -1.36 ± 0.055 | -0.723 ± 0.061
GCACAGCAAUAUUACGGUCA | -0.62 ± 0.08 | -0.276 ± 0.074
GCACAGCAAUAUUACGGUGA | -0.308 ± 0.07 | -0.455 ± 0.079
GCACAGCAAUAUUACGUAAC | -1.83 ± 0.092 | -0.651 ± 0.11
GCACAGCAAUAUUACGUAAG | -1.38 ± 0.06 | -0.717 ± 0.079
GCACAGCAAUAUUACGUGAG | 0.0789 ± 0.047 | 0.0342 ± 0.06
GCACAGCAAUAUUACGUUGU | -3.71 ± 0.12 | -2.74 ± 0.12
GCAGAGCAAUAUUACGACGG | -2.22 ± 0.2 | -1.21 ± 0.18
GCAGAGCAAUAUUACGACUC | -1.83 ± 0.15 | -1.38 ± 0.17
GCAGAGCAAUAUUACGCAGG | -4.06 ± 0.39 | -2.2 ± 0.22
GCAGAGCAAUAUUACGCGAC |  | -2.27 ± 0.36
GCAGAGCAAUAUUACGCUUU |  | -3.01 ± 0.27
GCAGAGCAAUAUUACGGAAG | -2.98 ± 0.28 | -1.65 ± 0.18
GCAGAGCAAUAUUACGGUGC | -2.67 ± 0.19 | -1.9 ± 0.24
GCAGAGCAAUAUUACGGUUC | -2.66 ± 0.28 | -1.58 ± 0.24
GCAGAGCAAUAUUACGGUUU | -2.82 ± 0.17 | -2.08 ± 0.15
GCAGAGCAAUAUUACGUAUG | -2.86 ± 0.35 | -1.4 ± 0.42
GCAGAGCAAUAUUACGUUUC | -4.1 ± 0.39 | -2.27 ± 0.44
GCAUAGCAAUAUUACGAAUU | -2.48 ± 0.2 | -1.61 ± 0.2
GCAUAGCAAUAUUACGAGAG | -2.71 ± 0.27 | -2.35 ± 0.21
GCAUAGCAAUAUUACGAGCA | -1.39 ± 0.23 | -0.718 ± 0.2
GCAUAGCAAUAUUACGAUAG | -3.12 ± 0.17 | -2.34 ± 0.2
GCAUAGCAAUAUUACGAUCG | -1.04 ± 0.11 | -0.34 ± 0.12
GCAUAGCAAUAUUACGCACU | -0.629 ± 0.09 | -0.277 ± 0.13

Sequence | self-splicing fitness (ln) (30 °C) | self-splicing fitness (ln) (37 °C)
GCAUAGCAAUAUUACGCAGG | -2.58 ± 0.21 | -1.35 ± 0.22
GCAUAGCAAUAUUACGCCAA | -4.09 ± 0.4 | -2.76 ± 0.35
GCAUAGCAAUAUUACGCCAG | -2.88 ± 0.42 | -2.94 ± 0.48
GCAUAGCAAUAUUACGCGCU |  | -2.39 ± 0.31
GCAUAGCAAUAUUACGCGGU | -3.29 ± 0.16 | -1.77 ± 0.16
GCAUAGCAAUAUUACGGACG | -1.7 ± 0.088 | -0.659 ± 0.12
GCAUAGCAAUAUUACGGCCU | -1.44 ± 0.11 | -0.683 ± 0.11
GCAUAGCAAUAUUACGGCGA | -0.526 ± 0.15 | -0.873 ± 0.15
GCAUAGCAAUAUUACGGCUA | -1.16 ± 0.069 | -0.431 ± 0.069
GCAUAGCAAUAUUACGGUCC | -1.71 ± 0.098 | -1.48 ± 0.11
GCAUAGCAAUAUUACGGUUG | -2.82 ± 0.099 | -1.39 ± 0.11
GCAUAGCAAUAUUACGUCAA | -2.89 ± 0.25 | -1.82 ± 0.18
GCAUAGCAAUAUUACGUCGG | -2.24 ± 0.14 | -1.47 ± 0.13
GCAUAGCAAUAUUACGUGGC | -2.72 ± 0.32 | -2.15 ± 0.31
GCAUAGCAAUAUUACGUGGG | -3.68 ± 0.13 | -2.82 ± 0.11
GCAUAGCAAUAUUACGUUCA | -1.41 ± 0.11 | -0.882 ± 0.13
GCAUAGCAAUAUUACGUUUC | -4.77 ± 0.26 | -3.01 ± 0.15
GCCAAGCAAUAUUACGACGC | -0.669 ± 0.11 | 0.3 ± 0.14
GCCAAGCAAUAUUACGAGCG | -2.34 ± 0.12 | -1.08 ± 0.13
GCCAAGCAAUAUUACGAGGA | -1.37 ± 0.1 | -0.561 ± 0.1
GCCAAGCAAUAUUACGAUAU | -2.75 ± 0.12 | -2.01 ± 0.13
GCCAAGCAAUAUUACGAUCA | -3.6 ± 0.21 | -1.2 ± 0.11
GCCAAGCAAUAUUACGAUGG | -3.61 ± 0.15 | -1.79 ± 0.16
GCCAAGCAAUAUUACGCCAA | -2.4 ± 0.23 | -1.19 ± 0.15
